We go through eight molecules from patent publication US20240409660A1.

The target in assay [1] is human CD28, full-length, expressed on Expi293 cells (human) (UniProt P10747). The assay can be described thus: flow cytometry, transfected cells. On the technique in general: In flow cytometry, cells or beads pass a laser one at a time.
Assay [2] deals with human PD-L1, full-length, expressed on Expi293 cells (human) (UniProt Q9NZQ7). The assay can be described thus: flow cytometry, transfected cells.
The next assay deals with human PD-L1 (human) (UniProt Q9NZQ7). The assay can be described thus: flow cytometry, transfected cells.
A further assay addresses human CD28 (human) (UniProt P10747). The assay can be described thus: flow cytometry, transfected cells.
Assay [3] addresses human CD28, full length, expressed on transfected Expi293 cells (human) (UniProt P10747). The assay can be described thus: flow cytometry, Expi293 cells transfected with human CD28.

Turning to “CD80 K36G/K37Q/M38I/L40M/F59L/E81V/L85R/K89N/A91T/F92P/K93V/R94L/E99G/T130A/N149S ECD-Fc (Fc fusion)”, the MFI ratio to WT CD80 (parental ratio) in assay [1] was 0.1.
For the molecule “stacked IgV-Fc fusion: domain 1 CD80 WT, domain 2 ICOSL WT”, the MFI turned out to be 1230 MFI in assay [1] and 2660 MFI in assay [2].
In turn, “stacked IgV-Fc fusion: domain 1 ICOSL WT, domain 2 NKp30 WT” came in with an MFI in assay [1] of 7920 MFI.
Consider “stacked IgV-Fc fusion: domain 1 NKp30 WT, domain 2 ICOSL WT”, for which, in assay [1], the MFI was determined as 6340 MFI.
In the case of “stacked IgV-Fc: Domain 1 CD80 WT / Domain 2 ICOSL WT (Fc fusion)”, the MFI in the assay with human PD-L1 (human) was 1230 MFI.
“stacked IgV-Fc: Domain 1 ICOSL WT / Domain 2 CD80 WT (Fc fusion)” yielded an MFI with human PD-L1 (human) of 3000 MFI.
As to “variant ICOSL ECD-Fc T43A, N52H, N57Y, L74Q, D89G, V110D, F172S (Fc fusion)”, the parental ratio with human CD28 (human) came out at 0.49.

B1: ICOSL F120S/Y152H/N201S variant ECD-Fc fusion (Fc fusion)
chain: DTQEKEVRAMVGSDVELSCACPEGSRFDLNDVYVYWQTSESKTVVTYHIPQNSSLENVDSRYRNRALMSPAGMLRGDFSLRLFNVTPQDEQKFHCLVLSQSLGFQEVLSVEVTLHVAANSSVPVVSAPHSPSQDELTFTCTSINGYPRPNVHWINKTDNSLLDQALQNDTVFLNMRGLYDVVSVLRIARTPSVNIGCCIESVLLQQNLTVGSQTGNDIGERDKITENPVSTGEKNAATAAAEPKSSDKTHTCPPCPAPELLGGPSVFLFPPKPKDTLMISRTPEVTCVVVDVSHEDPEVKFNWYVDGVEVHNAKTKPCEEQYGSTYRCVSVLTVLHQDWLNGKEYKCKVSNKALPAPIEKTISKAKGQPREPQVYTLPPSREEMTKNQVSLTCLVKGFYPSDIAVEWESNGQPENNYKTTPPVLDSDGSFFLYSKLTVDKSRWQQGNVFSCSVMHEALHNHYTQKSLSLSPGK
Take B1: the MFI ratio to parental (WT ICOSL) in assay [3] is 0.89.
